Results: publication PMC5507626 (Structure (London, England : 1993), 2017)
Numbering of substitutions follows the chain as printed. Names and notes keep the numbering of the source.

B1: TPR(2-142) F113M (domain or fragment, human, UniProt P12270 2-142, looked up)
chain: AAVLQQVLERTELNKLPKSVQNKLEKFLADQQSEIDGLKGRHEKFKVESEQQYFEIEKRLSHSQERLVNETRECQSLRLELEKLNNQLKALTEKNKELEIAQDRNIAIQSQMTRTKEELEAEKRDLIRTNERLSQELEYLT
modifications: selenomethionine (SeMet construct)
B2: TPR(2-142) F55M/F113M (domain or fragment, human, UniProt P12270 2-142, looked up)
chain: B1 chain with F54M
modifications: selenomethionine (SeMet construct)

What was measured:
crystal structure = molecular target: the molecule itself; assay: crystal structure
SEC = molecular target: the molecule itself; assay: SEC

Protein | stoichiometry N (crystal structure) | stoichiometry N (SEC)
B1 | 4 | –
B2 | 2 | 4
